# According to WO2022102744A1 (dated 2022):
# B1: anti-spike protein monoclonal antibody clone A1-1C7 (antibody, V domains shown)
# VH: EVQLQQSGTELVTPGASVKLSCTASGFNIKDTYVQWVKQRPEQGLEWIGRIDPASDNTFYASKFQGKASLSSDTSSNTAYMQLSSLTSGDTAVYYCSTYFSNFYYWGQGTPLTVSS
# VL: DIQMTQSPASLSASVGDTVTITCGASENIYGALNWYQRKKGKSPQLLIYGATNLADGMSSRFSGRGSGRQYFLKISSLHPDDVATYYCQNVLSVPWTFGGGTKLEIK
# notes: also called MAb2B (related to clone A1-1C7)
# Molecular target: T1, SARS-CoV-2 spike protein (full S1 and S2 regions, furin recognition sequence removed, histidine tag) (SARS-CoV-2, UniProt P0DTC2 14-1273)
# T1 construct: whole, on cells; also called Exo-S; spike protein positive exosome
# Assay: competition ELISA: ACE2 on plate, Exo-S with titrated antibody; competitor ACE2
binder,measurement,value
B1,IC50,4.8 ng/mL
